The text below walks through data of patent US20120230990A1 (MERCK SERONO, published 2012).

In experiment [1] the target is T1, human IL-22RA on cells (HepG2 hepatoma cells, normal human keratinocytes, BaF3 cells transfected with human … (human, UniProt Q8N6P7 16-574)).
T1 sequence: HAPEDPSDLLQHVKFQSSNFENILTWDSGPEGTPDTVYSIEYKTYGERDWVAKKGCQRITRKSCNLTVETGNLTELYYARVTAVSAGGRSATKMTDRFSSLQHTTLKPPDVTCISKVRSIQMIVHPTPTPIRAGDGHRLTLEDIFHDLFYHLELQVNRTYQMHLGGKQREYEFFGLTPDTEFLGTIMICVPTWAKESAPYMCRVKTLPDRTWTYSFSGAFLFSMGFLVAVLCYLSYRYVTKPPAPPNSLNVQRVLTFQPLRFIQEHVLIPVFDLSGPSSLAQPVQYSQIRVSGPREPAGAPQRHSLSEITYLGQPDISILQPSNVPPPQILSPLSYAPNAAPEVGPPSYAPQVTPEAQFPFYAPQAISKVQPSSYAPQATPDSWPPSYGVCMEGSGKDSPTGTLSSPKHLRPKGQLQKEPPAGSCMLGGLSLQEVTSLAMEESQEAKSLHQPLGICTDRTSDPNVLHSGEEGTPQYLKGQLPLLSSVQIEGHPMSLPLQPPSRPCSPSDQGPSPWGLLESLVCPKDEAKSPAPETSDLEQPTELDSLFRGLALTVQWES
The experiment is described as follows: cell-based or functional assay.

In experiment [2] the target is T2, murine IL-22RA on cells (HEPA1-6 hepatoma cells, BaF3 cells transfected with murine IL-22RA and IL-10RB) (murine, UniProt Q80XZ4 16-581).
T2 sequence (looked up): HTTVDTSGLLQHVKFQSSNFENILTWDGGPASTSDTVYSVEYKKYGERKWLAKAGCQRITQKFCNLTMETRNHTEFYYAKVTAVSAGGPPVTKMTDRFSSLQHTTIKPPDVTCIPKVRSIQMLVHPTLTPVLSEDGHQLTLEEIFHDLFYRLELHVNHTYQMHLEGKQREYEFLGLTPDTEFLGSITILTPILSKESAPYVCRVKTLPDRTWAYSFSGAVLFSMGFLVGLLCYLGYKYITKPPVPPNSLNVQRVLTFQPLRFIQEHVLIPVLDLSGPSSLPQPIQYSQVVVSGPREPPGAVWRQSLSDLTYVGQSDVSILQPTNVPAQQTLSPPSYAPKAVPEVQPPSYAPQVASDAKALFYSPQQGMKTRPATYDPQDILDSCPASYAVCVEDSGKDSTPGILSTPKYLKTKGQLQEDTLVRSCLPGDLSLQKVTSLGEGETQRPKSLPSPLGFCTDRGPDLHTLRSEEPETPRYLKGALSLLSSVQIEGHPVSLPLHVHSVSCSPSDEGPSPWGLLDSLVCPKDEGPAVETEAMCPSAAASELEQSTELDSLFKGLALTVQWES
The experiment is described as follows: cell-based or functional assay.

The target of experiment [3] is T3, human IL-22RA-ECD (IL-22RA-Extra Cellular Domain) (human, UniProt Q8N6P7 16-228).
T3 construct: also called human IL-22RA extracellular domain; hIL-22RA coated on the plates; not shown: 6 His tag
T3 sequence: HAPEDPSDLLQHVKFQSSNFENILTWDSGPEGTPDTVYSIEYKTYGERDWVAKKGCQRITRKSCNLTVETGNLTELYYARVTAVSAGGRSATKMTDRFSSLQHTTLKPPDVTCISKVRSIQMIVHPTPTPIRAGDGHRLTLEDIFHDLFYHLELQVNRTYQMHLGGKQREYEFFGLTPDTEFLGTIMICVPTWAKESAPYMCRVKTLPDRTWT
The experiment can be described thus: Biacore, IL-22RA-ECD with 6 His tag. (SPR reads the build-up and loss of mass on a sensor chip optically.)

Experiment [4] concerns the target T4, mouse IL-22RA-ECD (mouse, UniProt Q80XZ4 16-230).
T4 construct: extracellular domain; Produced in HEK-293 cells and NiNTA-purified; not shown: 6 His tag
T4 sequence (looked up): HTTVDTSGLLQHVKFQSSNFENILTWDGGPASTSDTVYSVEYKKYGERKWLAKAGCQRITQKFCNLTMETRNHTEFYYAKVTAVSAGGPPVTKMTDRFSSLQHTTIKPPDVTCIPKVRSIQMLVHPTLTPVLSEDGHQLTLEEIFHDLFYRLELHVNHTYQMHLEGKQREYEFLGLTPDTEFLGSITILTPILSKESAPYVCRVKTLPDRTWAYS
The experiment is described as follows: Biacore, IL-22RA-ECD with 6 His tag.

The target in the next experiment is T5, rat IL-22RA-ECD (rat).
T5 construct: extracellular domain; Produced in HEK-293 cells and NiNTA-purified
The experiment is described as follows: Biacore, IL-22RA-ECD with 6 His tag.

The target of experiment [5] is T6, marmoset monkey IL-22RA-ECD (marmoset monkey).
T6 construct: extracellular domain; Produced in HEK-293 cells and NiNTA-purified
The experiment is described as follows: Biacore, IL-22RA-ECD with 6 His tag.

The next experiment addresses T7, dog IL-22RA-ECD (dog).
T7 construct: extracellular domain; Produced in HEK-293 cells and NiNTA-purified
The experiment can be described thus: Biacore, IL-22RA-ECD with 6 His tag.

Experiment [6] concerns the target T4, mouse IL-22RA-ECD. The experiment can be described thus: KinExA and Biacore, IL-22RA-ECD with 6 His tag. Background: Kinetic exclusion samples the free partner from a solution-phase mixture.

B1: 280.346.TSY (humanized anti-human IL-22RA antibody comprising 280.VH3-66-46 paired with 280.VK4-1-TSY, human IgG1/kappa) (antibody, V domains shown)
VH: EVQLVESGGGLVQPGGSLRLSCAASGYSITAEYMNWVRQAPGKGLEWIGEINPSTGTTTYNQKFKGRFTISVDQSKNTAYLQMNSLRAEDTAVYYCARFDAYFDYWGQGTLVTVSS
VL: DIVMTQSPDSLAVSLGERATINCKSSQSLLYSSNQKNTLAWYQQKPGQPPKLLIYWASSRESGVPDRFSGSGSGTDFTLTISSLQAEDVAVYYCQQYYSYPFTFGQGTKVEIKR
notes: Produced in CHO cells; also called 280.VH3-66-46/VK4-1-TSY; 280.VH3-66.46 paired with 280.IGKV4-1-TSY
What is called Kd is the constant that tells how readily two partners part at equilibrium. Take B1: in experiment [1], the “IC50, STAT3 phosphorylation assay in human HepG2 hepatoma cells stimulated with recombinant human IL-22” value stood at 0.0552 nM; the “IC50, STAT3 phosphorylation assay in normal human keratinocytes stimulated with recombinant human IL-22” value is 0.061 nM; the “IC50, proliferation assay in BaF3 cells transfected with human IL-22RA and IL-10RB, cultured with recombinant human IL-22” value amounted to 0.317 nM; the “fold potency against the mouse parental antibody 280.46.3.4, STAT3 phosphorylation assay in HepG2 cells” value is around 5 fold. Besides, in experiment [1], the “fold potency against the mouse parental antibody 280.46.3.4, STAT3 phosphorylation assay in normal human keratinocytes” value is around 9 fold and the “fold potency against the mouse parental antibody 280.46.3.4, proliferation of human IL-22 receptor transfected BaF3 cells” value is 1.7 fold. Also, in experiment [2], the “IC50, STAT3 phosphorylation assay in murine HEPA1-6 hepatoma cells stimulated with recombinant murine IL-22” value is 2.1 nM; the “IC50, proliferation assay in BaF3 cells transfected with murine IL-22RA and IL-10RB, cultured with recombinant murine IL-22” value is 0.137 nM; the “fold potency against the mouse parental antibody 280.46.3.4, proliferation of mouse IL-22 receptor transfected BaF3 cells” value came out at 6.2 fold. In experiment [3], this molecule registered a Kd of around 0.15 nM. Also, the dissociation constant (Kd) with mouse IL-22RA-ECD [4] was around 20 nM. Besides, in the experiment with rat IL-22RA-ECD, the dissociation constant Kd was around 1000 nM. In experiment [5], this molecule came in with a Kd of 0.4 nM. Moreover, the equilibrium dissociation constant (Kd) in the experiment with dog IL-22RA-ECD is 100 nM. Moreover, the “fold lower affinity compared to human IL-22RA” value with mouse IL-22RA-ECD [6] is around 100 fold.
